The source of these data is patent publication US20230235013A1 (MABSOLVE, published 2023).

Changes are numbered by the printed parent chain. Names and notes keep the numbering of the source.

The chains are these.
B1: anti-CD20 human IgG1 L234H/L235H/G236R (antibody)
heavy: QVQLQQPGAELVKPGASVKMSCKASGYTFTSYNMHWVKQTPGRGLEWIGAIYPGNGDTSYNQKFKGKATLTADKSSSTAYMQLSSLTSEDSAVYYCARSTYYGGDWYFNVWGAGTTVTVSSASTKGPSVFPLAPSSKSTSGGTAALGCLVKDYFPEPVTVSWNSGALTSGVHTFPAVLQSSGLYSLSSVVTVPSSSLGTQTYICNVNHKPSNTKVDKKVEPKSCDKTHTCPPCPAPEHHRGPSVFLFPPKPKDTLMISRTPEVTCVVVDVSHEDPEVKFNWYVDGVEVHNAKTKPREEQYNSTYRVVSVLTVLHQDWLNGKEYKCKVSNKALPAPIEKTISKAKGQPREPQVYTLPPSRDELTKNQVSLTCLVKGFYPSDIAVEWESNGQPENNYKTTPPVLDSDGSFFLYSKLTVDKSRWQQGNVFSCSVMHEALHNHYTQKSLSLSPGK
light: QIVLSQSPAILSASPGEKVTMTCRASSSVSYIHWFQQKPGSSPKPWIYATSNLASGVPVRFSGSGSGTSYSLTISRVEAEDAATYYCQQWTSNPPTFGGGTKLEIKRTVAAPSVFIFPPSDEQLKSGTASVVCLLNNFYPREAKVQWKVDNALQSGNSQESVTEQDSKDSTYSLSSTLTLSKADYEKHKVYACEVTHQGLSSPVTKSFNRGEC
notes: also called 1-66; copies: 2 + 2
B2: anti-CD20 human IgG1 L234N/L235K/G236R (antibody)
heavy: B1 heavy with H238N, H239K
light: B1 light
notes: also called 1-98; copies: 2 + 2
B3: anti-CD20 human IgG1 L234H/L235T/G236R (antibody)
heavy: B1 heavy with H239T
light: B1 light
notes: also called 1-75; copies: 2 + 2
B4: anti-CD20 human IgG1 L234N/L235E/G236R (antibody)
heavy: B1 heavy with H238N, H239E
light: B1 light
notes: also called 1-94; copies: 2 + 2
B5: anti-CD20 human IgG1 L234N/L235H/G236R (antibody)
heavy: B1 heavy with H238N
light: B1 light
notes: also called 1-96; copies: 2 + 2
B6: anti-CD20 human IgG1 L234K/G236R (antibody)
heavy: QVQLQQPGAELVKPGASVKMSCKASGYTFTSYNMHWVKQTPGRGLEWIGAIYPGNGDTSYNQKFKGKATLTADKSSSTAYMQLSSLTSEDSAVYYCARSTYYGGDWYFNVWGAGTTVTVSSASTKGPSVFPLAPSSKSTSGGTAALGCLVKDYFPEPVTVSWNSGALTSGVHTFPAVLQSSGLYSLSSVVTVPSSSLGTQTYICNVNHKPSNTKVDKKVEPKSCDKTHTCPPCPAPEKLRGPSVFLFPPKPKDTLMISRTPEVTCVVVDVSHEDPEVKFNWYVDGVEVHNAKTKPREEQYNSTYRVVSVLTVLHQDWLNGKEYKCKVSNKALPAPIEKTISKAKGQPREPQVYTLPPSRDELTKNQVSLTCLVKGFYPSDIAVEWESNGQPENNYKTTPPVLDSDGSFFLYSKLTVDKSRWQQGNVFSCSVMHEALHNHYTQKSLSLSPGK
light: B1 light
notes: also called 1-84; copies: 2 + 2
B7: anti-CD20 human IgG1 L234K/L235M/G236R (antibody)
heavy: B1 heavy with H238K, H239M
light: B1 light
notes: also called 1-85; copies: 2 + 2
B8: anti-CD20 human IgG1 L234K/L235H/G236R (antibody)
heavy: B1 heavy with H238K
light: B1 light
notes: also called 1-81; copies: 2 + 2
B9: anti-CD20 human IgG1 L234N/L235Q/G236R (antibody)
heavy: B1 heavy with H238N, H239Q
light: B1 light
notes: copies: 2 + 2
B10: anti-CD20 human IgG1 L234H/L235M/G236R (antibody)
heavy: B1 heavy with H239M
light: B1 light
notes: also called 1-70; copies: 2 + 2
B11: anti-CD20 human IgG1 L234N/L235A/G236R (antibody)
heavy: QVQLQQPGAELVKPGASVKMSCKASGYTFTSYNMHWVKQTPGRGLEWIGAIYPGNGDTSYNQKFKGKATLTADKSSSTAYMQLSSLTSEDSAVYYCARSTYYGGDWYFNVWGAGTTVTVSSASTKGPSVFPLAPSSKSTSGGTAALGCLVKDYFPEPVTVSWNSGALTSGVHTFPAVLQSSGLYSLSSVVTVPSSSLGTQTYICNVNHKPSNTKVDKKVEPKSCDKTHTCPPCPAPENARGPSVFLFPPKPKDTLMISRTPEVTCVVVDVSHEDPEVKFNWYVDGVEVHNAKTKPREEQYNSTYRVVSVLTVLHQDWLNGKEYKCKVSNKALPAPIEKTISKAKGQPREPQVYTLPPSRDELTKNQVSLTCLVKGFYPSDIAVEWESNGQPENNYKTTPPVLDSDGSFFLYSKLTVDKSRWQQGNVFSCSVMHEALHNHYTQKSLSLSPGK
light: B1 light
notes: also called 1-92; copies: 2 + 2
B12: anti-CD20 human IgG1 L234K/L235E/G236R (antibody)
heavy: B1 heavy with H238K, H239E
light: B1 light
notes: also called 1-79; copies: 2 + 2
B13: anti-CD20 human IgG1 L234Q/L235H/G236R (antibody)
heavy: B1 heavy with H238Q
light: B1 light
notes: also called 2-29; copies: 2 + 2
B14: anti-CD20 human IgG1 L234K/L235G/G236R (antibody)
heavy: B1 heavy with H238K, H239G
light: B1 light
notes: also called 1-80; copies: 2 + 2
B15: anti-CD20 human IgG1 L234K/L235Q/G236R (antibody)
heavy: B1 heavy with H238K, H239Q
light: B1 light
notes: also called 1-87; 2-22; copies: 2 + 2
B16: anti-CD20 human IgG1 L234N/L235N/G236R (antibody)
heavy: B1 heavy with H238N, H239N
light: B1 light
notes: copies: 2 + 2
B17: anti-CD20 human IgG1 L234Q/L235G/G236R (antibody)
heavy: B1 heavy with H238Q, H239G
light: B1 light
notes: also called 1-110; copies: 2 + 2
B18: anti-CD20 human IgG1 L234H/L235R/G236R (antibody)
heavy: B1 heavy with H239R
light: B1 light
notes: also called 1-73; copies: 2 + 2
B19: anti-CD20 human IgG1 L234H/L235K/G236R (antibody)
heavy: B1 heavy with H239K
light: B1 light
notes: also called 1-68; copies: 2 + 2
B20: anti-CD20 human IgG1 L234H/L235N/G236R (antibody)
heavy: B1 heavy with H239N
light: B1 light
notes: also called 1-71; copies: 2 + 2
B21: anti-CD20 human IgG1 L234H/L235Q/G236R (antibody)
heavy: B1 heavy with H239Q
light: B1 light
notes: also called 1-72; copies: 2 + 2
B22: anti-CD20 human IgG1 L234N/G236R (antibody)
heavy: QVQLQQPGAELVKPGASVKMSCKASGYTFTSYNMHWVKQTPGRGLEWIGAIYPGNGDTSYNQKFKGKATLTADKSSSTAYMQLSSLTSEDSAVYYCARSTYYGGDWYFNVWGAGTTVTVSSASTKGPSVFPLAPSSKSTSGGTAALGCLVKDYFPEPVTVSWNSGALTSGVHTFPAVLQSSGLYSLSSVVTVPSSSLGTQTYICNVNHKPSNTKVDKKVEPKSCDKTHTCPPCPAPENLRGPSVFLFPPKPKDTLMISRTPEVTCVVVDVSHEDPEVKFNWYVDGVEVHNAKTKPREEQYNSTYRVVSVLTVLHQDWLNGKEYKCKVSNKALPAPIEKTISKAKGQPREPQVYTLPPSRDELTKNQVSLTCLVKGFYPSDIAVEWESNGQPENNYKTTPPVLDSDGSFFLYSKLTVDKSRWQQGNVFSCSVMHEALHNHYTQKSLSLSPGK
light: B1 light
notes: also called 1-99; copies: 2 + 2
B23: anti-CD20 human IgG1 L234N/L235R/G236R (antibody)
heavy: B1 heavy with H238N, H239R
light: B1 light
notes: copies: 2 + 2
B24: anti-CD20 human IgG1 L234H/L235S/G236R (antibody)
heavy: B1 heavy with H239S
light: B1 light
notes: also called 1-74; 2-21; copies: 2 + 2
B25: anti-CD20 human IgG1 L234N/L235D/G236R (antibody)
heavy: B1 heavy with H238N, H239D
light: B1 light
notes: also called 1-93; copies: 2 + 2
B26: anti-CD20 human IgG1 L234H/L235V/G236R (antibody)
heavy: B1 heavy with H239V
light: B1 light
notes: also called 1-76; copies: 2 + 2
B27: anti-CD20 human IgG1 L234Q/L235E/G236R (antibody)
heavy: B1 heavy with H238Q, H239E
light: B1 light
notes: copies: 2 + 2
B28: anti-CD20 human IgG1 L234N/L235G/G236R (antibody)
heavy: B1 heavy with H238N, H239G
light: B1 light
notes: also called 1-95; copies: 2 + 2
B29: anti-CD20 human IgG1 L234N/L235V/G236R (antibody)
heavy: B1 heavy with H238N, H239V
light: B1 light
notes: copies: 2 + 2
B30: anti-CD20 human IgG1 L234K/L235A/G236R (antibody)
heavy: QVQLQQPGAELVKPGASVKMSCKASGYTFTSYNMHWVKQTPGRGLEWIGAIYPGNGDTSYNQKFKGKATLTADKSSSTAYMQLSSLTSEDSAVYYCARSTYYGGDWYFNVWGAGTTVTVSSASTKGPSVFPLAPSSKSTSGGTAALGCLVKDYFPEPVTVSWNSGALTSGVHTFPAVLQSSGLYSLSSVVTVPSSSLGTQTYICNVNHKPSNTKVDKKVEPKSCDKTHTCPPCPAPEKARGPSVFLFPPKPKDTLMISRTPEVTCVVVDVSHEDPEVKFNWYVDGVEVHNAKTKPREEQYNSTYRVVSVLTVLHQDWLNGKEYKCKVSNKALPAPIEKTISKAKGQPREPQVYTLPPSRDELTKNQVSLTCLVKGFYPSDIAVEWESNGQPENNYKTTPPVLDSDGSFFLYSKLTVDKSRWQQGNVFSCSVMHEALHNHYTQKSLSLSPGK
light: B1 light
notes: also called 1-77; copies: 2 + 2
B31: anti-CD20 human IgG1 L234K/L235I/G236R (antibody)
heavy: B1 heavy with H238K, H239I
light: B1 light
notes: also called 1-82; copies: 2 + 2
B32: anti-CD20 human IgG1 L234N/L235S/G236R (antibody)
heavy: B1 heavy with H238N, H239S
light: B1 light
notes: copies: 2 + 2
B33: anti-CD20 human IgG1 L234K/L235K/G236R (antibody)
heavy: B1 heavy with H238K, H239K
light: B1 light
notes: also called 1-83; copies: 2 + 2
B34: anti-CD20 human IgG1 L234N/L235T/G236R (antibody)
heavy: B1 heavy with H238N, H239T
light: B1 light
notes: copies: 2 + 2
B35: anti-CD20 human IgG1 L234N/L235I/G236R (antibody)
heavy: B1 heavy with H238N, H239I
light: B1 light
notes: also called 1-97; copies: 2 + 2
B36: anti-CD20 human IgG1 L234K/L235N/G236R (antibody)
heavy: B1 heavy with H238K, H239N
light: B1 light
notes: also called 1-86; copies: 2 + 2

This experiment deals with T1, Histidine-tagged recombinant human FcγRI (CD64) (human, UniProt P12314 16-288).
T1 construct: bought; also called Sino Biological Cat. No. 12056-H08H
Briefly: SPR, culture supernatant, captured His-FcγRI.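 Further: biacore T200 SPR at 25 °C, anti-His capture, supernatants of HEK293 cells expressing IgG1 Fc variants injected 1 min, reference-subtracted response read 55 s after injection start.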
For B1, the Mean binding response stood at 36.3 RU.

Consider B2, for which the Mean binding response amounted to 25 RU.

On to B3, for which the Mean binding response was found to be 44.9 RU.

Regarding B4, the Mean binding response was determined as 16.4 RU.

For the molecule B5, the Mean binding response turned out to be 17.7 RU.

Consider B6, for which the Mean binding response came out at 31.2 RU.

For the molecule B7, the Mean binding response was determined as 23.9 RU.

With B8, the Mean binding response was 25.3 RU.

As for B9, the Mean binding response came out at 4.5 RU.

On to B10, for which the Mean binding response amounted to 31.3 RU.

For the molecule B11, the Mean binding response stood at 22.3 RU.

Turning to B12, the Mean binding response stood at 29.9 RU.

On to B13, for which the Mean binding response was 10 RU.

As for B14, the Mean binding response was 27.4 RU.

On to B15, for which the Mean binding response came out at 8.4 RU.

Regarding B16, the Mean binding response was 16.9 RU.

For B17, the Mean binding response worked out at 28.1 RU.

With B18, the Mean binding response worked out at 35.3 RU.

B19: the Mean binding response was 29.2 RU.

As to B20, the Mean binding response was found to be 24.6 RU.

Turning to B21, the Mean binding response is 33.3 RU.

As to B22, the Mean binding response stood at 22.3 RU.

On to B23, for which the Mean binding response is 30.4 RU.

Consider B24, for which the Mean binding response stood at 10.9 RU.

As to B25, the Mean binding response worked out at 13.4 RU.

Turning to B26, the Mean binding response was 25.6 RU.

B27: the Mean binding response worked out at 28.8 RU.

In the case of B28, the Mean binding response was 22.1 RU.

B29: the Mean binding response worked out at 18.9 RU.

For the molecule B30, the Mean binding response came to 23 RU.

For the molecule B31, the Mean binding response came out at 30.9 RU.

On to B32, for which the Mean binding response was 18.4 RU.

Take B33: the Mean binding response is 37.6 RU.

Turning to B34, the Mean binding response was determined as 8.6 RU.

For the molecule B35, the Mean binding response is 14.1 RU.

On to B36, for which the Mean binding response was 24.8 RU.
